Reference: paper PMC2064084

Target: GST–tubulin tails (ending in either Tyr or Glu)
Experiment: pull-down

B1: E442Q Spastin (enzyme)
chain: ESGAVPKRKDPLTHTSNSLPRSKTVMKTGSAGLSGHHRAPSYSGLSMVSGVKQGSGPAPTTHKGTPKTNRTNKPSTPTTATRKKKDLKNFRNVDSNLANLIMNEIVDNGTAVKFDDIAGQDLAKQALQEIVILPSLRPELFTGLRAPARGLLLFGPPGNGKTMLAKAVAAESNATFFNISAASLTSKYVGEGEKLVRALFAVARELQPSIIFIDQVDSLLCERREGEHDASRRLKTEFLIEFDGVQSAGDDRVLVMGATNRPQELDEAVLRRFIKRVYVSLPNEETRLLLLKNLLCKQGSPLTQKELAQLARMTDGYSGSDLTALAKDAALGPIRELKPEQVKNMSASEMRNIRLSDFTESLKKIKRSVSPQTLEAYIRWNKDFGDTTV
In the case of B1, the percent of the Spastin bound is reported as 25 to 33%.
